These results are taken from publication PMC5228132.

Assay [1] concerns the target FovPG1 (Fusarium oxysporum f. sp. vasinfectum polygalacturonase 1) (Fusarium oxysporum f. sp. vasinfectum).
In assay [2] the target is VdPG1 (Verticillium dahliae polygalacturonase 1) (Verticillium dahliae).
Assay [3] has the same target. The source holds these as a separate data set.

For “GhPGIP1 (cotton polygalacturonase-inhibiting protein 1) (natural protein)”, the percent inhibition of PG activity by 3.24 nM GhPGIP1 over pH 7.0-10.0; 23.79% at pH 8.0 and 29.61% at pH 9.0 in assay [1] came to 29.6%. Moreover, the percent inhibition of PG activity by 3.24 nM GhPGIP1 over pH 3.5-5.0; 26.88% at pH 4.2 and 31.45% at pH 4.8 in assay [2] was 31.4%. This substance had an IC50 of inhibition; the text gives it for VdPG1, while the caption and footnote of Table 1 give it as antifungal activity on the growth of V. dahliae (eight doses of purified GhPGIP1) in assay [3] of 44.4 µg/mL.
